One experiment concerns the target T1, FLAG-Swd2 (purified) (S. cerevisiae, UniProt P36104 1-329).
T1 sequence (looked up): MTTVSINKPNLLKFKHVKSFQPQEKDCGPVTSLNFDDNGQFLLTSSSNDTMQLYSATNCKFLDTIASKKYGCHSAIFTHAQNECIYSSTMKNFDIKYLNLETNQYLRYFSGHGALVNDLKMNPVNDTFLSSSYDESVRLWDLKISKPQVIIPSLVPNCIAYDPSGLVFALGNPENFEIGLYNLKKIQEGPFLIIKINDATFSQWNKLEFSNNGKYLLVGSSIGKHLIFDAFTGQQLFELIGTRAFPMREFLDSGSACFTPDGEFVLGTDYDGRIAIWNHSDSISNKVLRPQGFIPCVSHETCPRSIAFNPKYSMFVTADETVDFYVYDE
Kind of experiment: pull-down.

For experiment [1], the target named is T2, FLAG-Set1 (full length) (S. cerevisiae, UniProt P38827 1-1080).
T2 sequence (looked up): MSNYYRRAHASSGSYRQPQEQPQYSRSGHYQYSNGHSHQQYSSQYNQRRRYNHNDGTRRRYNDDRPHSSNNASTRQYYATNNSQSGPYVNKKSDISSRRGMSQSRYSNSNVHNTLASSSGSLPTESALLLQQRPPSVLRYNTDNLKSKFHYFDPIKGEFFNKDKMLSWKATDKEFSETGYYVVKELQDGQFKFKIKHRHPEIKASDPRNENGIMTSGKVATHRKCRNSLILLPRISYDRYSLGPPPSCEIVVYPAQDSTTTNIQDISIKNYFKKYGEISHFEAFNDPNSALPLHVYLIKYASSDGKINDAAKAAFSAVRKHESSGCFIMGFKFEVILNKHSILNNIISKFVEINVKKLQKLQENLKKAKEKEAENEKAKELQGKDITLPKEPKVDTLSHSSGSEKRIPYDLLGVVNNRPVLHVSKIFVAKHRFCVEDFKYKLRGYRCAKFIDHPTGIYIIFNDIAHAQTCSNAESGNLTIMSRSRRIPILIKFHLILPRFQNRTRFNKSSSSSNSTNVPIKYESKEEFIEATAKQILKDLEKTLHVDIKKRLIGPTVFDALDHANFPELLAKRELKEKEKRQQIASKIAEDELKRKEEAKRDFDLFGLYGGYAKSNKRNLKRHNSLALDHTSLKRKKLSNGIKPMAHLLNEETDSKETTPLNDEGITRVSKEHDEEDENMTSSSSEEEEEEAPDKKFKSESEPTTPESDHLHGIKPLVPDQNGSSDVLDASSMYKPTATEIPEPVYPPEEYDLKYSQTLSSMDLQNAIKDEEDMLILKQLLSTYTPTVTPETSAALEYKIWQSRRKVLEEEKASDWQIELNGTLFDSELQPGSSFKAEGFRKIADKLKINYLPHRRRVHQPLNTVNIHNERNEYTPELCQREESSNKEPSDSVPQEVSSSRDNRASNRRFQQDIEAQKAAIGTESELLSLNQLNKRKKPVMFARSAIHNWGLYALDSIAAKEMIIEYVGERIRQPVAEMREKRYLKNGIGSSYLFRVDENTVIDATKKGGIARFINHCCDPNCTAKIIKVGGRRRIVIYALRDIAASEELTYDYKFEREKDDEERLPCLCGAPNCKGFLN
Briefly: SEC.

Experiment [2] has as its target T2, FLAG-Set1 (full length). Briefly: affinity co-purification by the FLAG tag.
The target in experiment [3] is T2, FLAG-Set1 (full length). Briefly: affinity co-purification by the FLAG tag. This is another data set of the same source.
Experiment [4] addresses T3, GST-Set1 fragment, residues 356–568 (S. cerevisiae, UniProt P38827 356-568).
T3 sequence (looked up): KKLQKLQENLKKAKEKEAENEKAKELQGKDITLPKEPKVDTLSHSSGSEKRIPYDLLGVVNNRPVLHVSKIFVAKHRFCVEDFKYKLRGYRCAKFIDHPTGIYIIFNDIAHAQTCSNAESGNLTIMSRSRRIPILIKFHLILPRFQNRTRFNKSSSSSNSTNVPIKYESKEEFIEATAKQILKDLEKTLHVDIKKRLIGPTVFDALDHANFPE
Kind of experiment: pull-down.

The target of another experiment is T4, FLAG-Spp1 (purified) (S. cerevisiae, UniProt Q03012 1-353).
T4 sequence (looked up): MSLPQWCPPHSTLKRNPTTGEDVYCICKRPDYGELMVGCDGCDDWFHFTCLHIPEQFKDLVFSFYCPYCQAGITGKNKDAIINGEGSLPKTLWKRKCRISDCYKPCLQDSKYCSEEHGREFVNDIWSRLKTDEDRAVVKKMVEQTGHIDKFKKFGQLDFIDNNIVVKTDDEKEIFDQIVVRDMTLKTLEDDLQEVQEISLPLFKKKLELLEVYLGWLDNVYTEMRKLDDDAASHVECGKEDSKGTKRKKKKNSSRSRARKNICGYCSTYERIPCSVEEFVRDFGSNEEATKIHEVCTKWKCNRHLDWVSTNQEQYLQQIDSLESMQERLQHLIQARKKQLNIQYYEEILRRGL
Kind of experiment: pull-down.

This is an account of results in paper PMC3615140 (Molecular cell, 2013).

B1: GST-Set1 fragment, residues 1–229 (domain or fragment, S. cerevisiae, UniProt P38827 1-229, looked up)
chain: MSNYYRRAHASSGSYRQPQEQPQYSRSGHYQYSNGHSHQQYSSQYNQRRRYNHNDGTRRRYNDDRPHSSNNASTRQYYATNNSQSGPYVNKKSDISSRRGMSQSRYSNSNVHNTLASSSGSLPTESALLLQQRPPSVLRYNTDNLKSKFHYFDPIKGEFFNKDKMLSWKATDKEFSETGYYVVKELQDGQFKFKIKHRHPEIKASDPRNENGIMTSGKVATHRKCRNSL
As for B1, in the experiment with FLAG-Swd2 (purified), the binding result is “binds”.

B2: Swd2 (natural protein, S. cerevisiae, UniProt P36104 1-329, looked up)
chain: T1 sequence (looked up)
In the case of B2, the binding result in the experiment with FLAG-Set1 (full length) [1] is on record as “binds”.

B3: Swd1 (natural protein, S. cerevisiae, UniProt P39706 1-426, looked up)
chain: MNILLQDPFAVLKEHPEKLTHTIENPLRTECLQFSPCGDYLALGCANGALVIYDMDTFRPICVPGNMLGAHVRPITSIAWSPDGRLLLTSSRDWSIKLWDLSKPSKPLKEIRFDSPIWGCQWLDAKRRLCVATIFEESDAYVIDFSNDPVASLLSKSDEKQLSSTPDHGYVLVCTVHTKHPNIIIVGTSKGWLDFYKFHSLYQTECIHSLKITSSNIKHLIVSQNGERLAINCSDRTIRQYEISIDDENSAVELTLEHKYQDVINKLQWNCILFSNNTAEYLVASTHGSSAHELYIWETTSGTLVRVLEGAEEELIDINWDFYSMSIVSNGFESGNVYVWSVVIPPKWSALAPDFEEVEENVDYLEKEDEFDEVDEAEQQQGLEQEEEIAIDLRTREQYDVRGNNLLVERFTIPTDYTRIIKMQSS
Regarding B3, the binding result with FLAG-Set1 (full length) [2] was “binds”.

B4: Swd3 (natural protein, S. cerevisiae, UniProt P38123 1-315, looked up)
chain: MFQFVTPVGTQNGLKATCAKISPDGQFLAITQGLNILIYDINRRTVSQTLVTSHARPFSELCWSPDGQCIATASDDFSVEIIHLSYGLLHTFIGHTAPVISLTFNRKGNLLFTSSMDESIKIWDTLNGSLMKTISAHSEAVVSVDVPMNDSSILSSGSYDGLIRIFDAETGHCLKTLTYDKDWKRENGVVPISQVKFSENARYLLVKSLDGVVKIWDCIGGCVVRTFQVQPLEKGVLHHSCGMDFLNPEDGSTPLVISGYENGDIYCWNSDTKSLLQLLDGSLYHHSSPVMSIHCFGNIMCSLALNGDCCLWRWV
In the case of B4, in the experiment with FLAG-Set1 (full length) [3], the binding result is reported as “binds”.

B5: Shg1 (natural protein, S. cerevisiae, UniProt P38337 1-142, looked up)
chain: MAYNQEDSKRLSDKYKKEGHFDKLKREILSNPWNNTEENSESFEQALRKRVASTVKEMVNEDEELIFKNRGLTSALIESQLVKDNYLKLGSKMEGDNGDGEKKFDLDVYVRSKLQDPKLLEMIKGQLQETLNSYEEEANGST
With B5, in the experiment with FLAG-Set1 (full length) [1], the binding result is on record as “binds”.

B6: FLAG-Shg1 (purified) (natural protein, S. cerevisiae, UniProt P38337 1-142, looked up)
chain: B5 chain
On to B6, for which the binding result in experiment [4] is on record as “binds”.

B7: Spp1 (natural protein, S. cerevisiae, UniProt Q03012 1-353, looked up)
chain: T4 sequence (looked up)
In the case of B7, the binding result in the experiment with FLAG-Set1 (full length) [1] is given as “binds”.

B8: GST-n-SET (Set1 residues 762–937) (domain or fragment, S. cerevisiae, UniProt P38827 762-937, looked up)
chain: MDLQNAIKDEEDMLILKQLLSTYTPTVTPETSAALEYKIWQSRRKVLEEEKASDWQIELNGTLFDSELQPGSSFKAEGFRKIADKLKINYLPHRRRVHQPLNTVNIHNERNEYTPELCQREESSNKEPSDSVPQEVSSSRDNRASNRRFQQDIEAQKAAIGTESELLSLNQLNKRK
B8: the binding result in the experiment with FLAG-Spp1 (purified) is listed as “binds”.
